Here are results for eight sequences from the supplement of paper PMC11316812.

± gives the standard deviation of the averaged measurements.

One data set relates to hTERT-HMEC. Kind of data set: percentage of EdU-negative (G0-arrested) nuclei per well, 72 h; higher = more G0 arrest. The following applies: reference: sequence is the full UniProt precursor, the tested protein was the secreted form or ectodomain.
The subject of the next data set is MCF7. The data set is described as above. The following applies: reference: sequence is the full UniProt precursor, the tested protein was the secreted form or ectodomain.
The mark [1] stands for this setting: protein concentration 0.0293325 µM.
Where [2] appears, read: protein concentration 0.293325 µM.
Where [3] appears, read: protein concentration 0.0225 µM.
The mark [4] stands for this setting: protein concentration 0.03125 µM.
The mark [5] stands for this setting: protein concentration 0.3125 µM.
The mark [6] stands for this setting: protein concentration 0.027515 µM.
The mark [7] stands for this setting: protein concentration 0.27515 µM.
Where [8] appears, read: protein concentration 0.0161125 µM.
[9] abbreviates: protein concentration 0.161125 µM.
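Note: secreted proteins added to cultured cells, EdU pulse at the end, nuclei found by Hoechst imaging, EdU status from nuclear versus surrounding ring intensity ratio, PBS as neutral control.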

In the case of “MPVMRLFPCFLQLLAGLALPAVPPQQWALSAGNGSSEVEVVPFQEVWGRSYCRALERLVDVVSEYPSEVEHMFSPSCVSLLRCTGCCGDENLHCVPVETANVTMQLLKIRSGDRPSYVELTFSQHVRCECRHSPGRQSPDMPGDFRADAPSFLPPRRSLPMLFRMEWGCALTGSQSAVWPSSPVPEEIPRMHPGRNGKKQQRKPLREKMKPERCGDAVPRR”, the “percentage of EdU-negative” value in the data set with hTERT-HMEC (setting [1]) was found to be 4.772 ± 0.0079%; in the data set with hTERT-HMEC (setting [2]), 5.02 ± 0.86%; with MCF7 (setting [1]), 24.4 ± 0.58%; in the data set with MCF7 (setting [2]), 25.4 ± 0.6%.
Regarding “MPVPASWPHLPSPFLLMTLLLGRLTGVAGEDELQVIQPEKSVSVAAGESATLRCAMTSLIPVGPIMWFRGAGAGRELIYNQKEGHFPRVTTVSELTKRNNLDFSISISNITPADAGTYYCVKFRKGSPDDVEFKSGAGTELSVRAKPSAPVVSGPAVRATPEHTVSFTCESHGFSPRDITLKWFKNGNELSDFQTNVDPAGDSVSYSIHSTARVVLTRGDVHSQVICEIAHITLQGDPLRGTANLSEAIRVPPTLEVTQQPMRAENQANVTCQVSNFYPRGLQLTWLENGNVSRTETASTLIENKDGTYNWMSWLLVNTCAHRDDVVLTCQVEHDGQQAVSKSYALEISAHQKEHGSDITHEAALAPTAPLLVALLLGPKLLLVVGVSAIYICWKQKA”, the “percentage of EdU-negative” value with hTERT-HMEC (setting [3]) was 5.34 ± 0.15%; in the data set with hTERT-HMEC (protein concentration 0.225 µM), 5.42 ± 0.66%; in the data set with MCF7 (setting [3]), 24.1 ± 1.1%; in the data set with MCF7 (protein concentration 0.225 µM), 27 ± 1.5%.
As for “MPWPLLLLLAVSGAQTTRPCFPGCQCEVETFGLFDSFSLTRVDCSGLGPHIMPVPIPLDTAHLDLSSNRLEMVNESVLAGPGYTTLAGLDLSHNLLTSISPTAFSRLRYLESLDLSHNGLTALPAESFTSSPLSDVNLSHNQLREVSVSAFTTHSQGRALHVDLSHNLIHRLVPHPTRAGLPAPTIQSLNLAWNRLHAVPNLRDLPLRYLSLDGNPLAVIGPGAFAGLGGLTHLSLASLQRLPELAPSGFRELPGLQVLDLSGNPKLNWAGAEVFSGLSSLQELDLSGTNLVPLPEALLLHLPALQSVSVGQDVRCRRLVREGTYPRRPGSSPKVALHCVDTRDSAARGPTIL [Q8WUA8]”, the “percentage of EdU-negative” value in the data set with hTERT-HMEC (setting [4]) turned out to be 5.33 ± 0.84%; in the data set with hTERT-HMEC (setting [5]), 5.25 ± 0.93%; with MCF7 (setting [4]), 28 ± 1.4%; in the data set with MCF7 (setting [5]), 29.1 ± 0.81%.
Regarding “MQAARGGAGRPERPGRPGRGPERERERPPGAGAASPCAAPGLPAGGATIHPGSPSAWPPRARAALRLWLGCVCFALVQADSPSAPVNVTVRHLKANSAVVSWDVLEDEVVIGFAISQQKKDVRMLRFIQEVNTTTRSCALWDLEEDTEYIVHVQAISIQGQSPASEPVLFKTPREAEKMASKNKDEVTMKEMGRNQQLRTGEVLIIVVVLFMWAGVIALFCRQYDIIKDNEPNNNKEKTKSASETSTPEHQGGGLLRSKI [Q8NAU1]”, the “percentage of EdU-negative” value stood at 5.26 ± 1.1% with hTERT-HMEC (setting [3]), 5.43 ± 0.82% in the data set with hTERT-HMEC (protein concentration 0.225 µM), 27.08 ± 0.2% with MCF7 (setting [3]) and 25.3 ± 1.4% in the data set with MCF7 (protein concentration 0.225 µM).
In the case of “MQAAWLLGALVVPQLLGFGHGARGAEREWEGGWGGAQEEEREREALMLKHLQEALGLPAGRGDENPAGTVEGKEDWEMEEDQGEEEEEEATPTPSSGPSPSPTPEDIVTYILGRLAGLDAGLHQLHVRLHALDTRVVELTQGLRQLRNAAGDTRDAVQALQEAQGRAEREHGRLEGCLKGLRLGHKCFLLSRDFEAQAAAQARCTARGGSLAQPADRQQMEALTRYLRAALAPYNWPVWLGVHDRRAEGLYLFENGQRVSFFAWHRSPRPELGAQPSASPHPLSPDQPNGGTLENCVAQASDDGSWWDHDCQRRLYYVCEFPF [Q9Y240]”, the “percentage of EdU-negative” value in the data set with hTERT-HMEC (setting [4]) came out at 6.19 ± 0.7%; in the data set on hTERT-HMEC (setting [5]) it was 6.64 ± 1.2%; with MCF7 (setting [4]) it was 24.4 ± 0.81%; with MCF7 (setting [5]) it was 27.6 ± 1.3%.
For “MQALVLLLCIGALLGHSSCQNPASPPEEGSPDPDSTGALVEEEDPFFKVPVNKLAAAVSNFGYDLYRVRSSTSPTTNVLLSPLSVATALSALSLGAEQRTESIIHRALYYDLISSPDIHGTYKELLDTVTAPQKNLKSASRIVFEKKLRIKSSFVAPLEKSYGTRPRVLTGNPRLDLQEINNWVQAQMKGKLARSTKEIPDEISILLLGVAHFKGQWVTKFDSRKTSLEDFYLDEERTVRVPMMSDPKAVLRYGLDSDLSCKIAQLPLTGSMSIIFFLPLKVTQNLTLIEESLTSEFIHDIDRELKTVQAVLTVPKLKLSYEGEVTKSLQEMKLQSLFDSPDFSKITGKPIKLTQVEHRAGFEWNEDGAGTTPSPGLQPAHLTFPLDYHLNQPFIFVLRDTDTGALLFIGKILDPRGP”, the “percentage of EdU-negative” value in the data set on hTERT-HMEC (setting [6]) worked out at 5.35 ± 0.62%; in the data set on hTERT-HMEC (setting [7]) it was 9.19 ± 1.1%; in the data set on MCF7 (setting [6]) it was 26.5 ± 1.4%; in the data set with MCF7 (setting [7]) it was 28 ± 0.47%.
On to “MQAPGRGPLGLRLMMPGRRGALREPGGCGSCLGVALALLLLLLPACCPVRAQNDTEPIVLEGKCLVVCDSSPSADGAVTSSLGISVRSGSAKVAFSATRSTNHEPSEMSNRTMTIYFDQVLVNIGNHFDLASSIFVAPRKGIYSFSFHVVKVYNRQTIQVSLMQNGYPVISAFAGDQDVTREAASNGVLLLMEREDKVHLKLERGNLMGGWKYSTFSGFLVFPL [Q8IUK8]”, for which the “percentage of EdU-negative” value in the data set with hTERT-HMEC (setting [3]) was 4.67 ± 0.45%; in the data set with hTERT-HMEC (protein concentration 0.225 µM), 5.29 ± 0.93%; in the data set with MCF7 (setting [3]), 26.91 ± 0.25%; with MCF7 (protein concentration 0.225 µM), 26.76 ± 0.11%.
Turning to “MQAQQYQQQRRKFAAAFLAFIFILAAVDTAEAGKKEKPEKKVKKSDCGEWQWSVCVPTSGDCGLGTREGTRTGAECKQTMKTQRCKIPCNWKKQFGAECKYQFQAWGECDLNTALKTRTGSLKRALHNAECQKTVTISKPCGKLTKPKPQAESKKKKKEGKKQEKMLD”, the “percentage of EdU-negative” value in the data set on hTERT-HMEC (setting [8]) was 4.79 ± 0.99%; with hTERT-HMEC (setting [9]), 5.12 ± 0.3%; in the data set on MCF7 (setting [8]) it was 25.8 ± 1.2%; in the data set on MCF7 (setting [9]) it was 30.5 ± 1.6%.
